Data published in patent publication US20040110663A1.

Molecular target: Sonic hedgehog (Shh), human, as secreted by human cancer cell lines in co-culture (human)
Assay: cell-based or functional assay

Substance: Shh blocking antibody 5E1
- inhibition of luciferase expression in S12 cells (gli-Luc assay, S12/RT-4 co-cultures): 85 ng/mL
- inhibition of luciferase expression in S12 cells (gli-Luc assay, S12/RT-4 co-cultures), IC90: 500 ng/mL
